These are literature values, as cited in publication PMC11941745.

As usually defined, the Kd is the concentration at which binding is half-saturated.

In series [1] the target is flotillin-1 (Homo sapiens) (UniProt O75955). Put plainly: SPR. (Surface plasmon resonance follows binding to a sensor surface in real time, without labels.)
Series [2] addresses flotillin-2 (Homo sapiens) (UniProt Q14254). Nature of the series: SPR.
Sequence of UniProt Q14254 (Q14254 2-428): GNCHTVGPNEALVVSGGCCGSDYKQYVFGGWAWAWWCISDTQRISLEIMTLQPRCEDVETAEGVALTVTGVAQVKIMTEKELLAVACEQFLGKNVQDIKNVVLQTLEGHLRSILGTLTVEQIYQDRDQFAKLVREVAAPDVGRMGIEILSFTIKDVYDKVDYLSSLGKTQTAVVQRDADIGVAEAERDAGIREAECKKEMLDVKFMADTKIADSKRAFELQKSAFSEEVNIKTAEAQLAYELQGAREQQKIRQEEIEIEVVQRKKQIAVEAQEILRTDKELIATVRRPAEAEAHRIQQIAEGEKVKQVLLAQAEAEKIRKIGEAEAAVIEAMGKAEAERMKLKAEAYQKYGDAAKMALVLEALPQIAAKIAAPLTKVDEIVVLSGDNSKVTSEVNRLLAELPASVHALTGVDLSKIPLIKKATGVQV

Sequence of UniProt O75955 (O75955 whole entry): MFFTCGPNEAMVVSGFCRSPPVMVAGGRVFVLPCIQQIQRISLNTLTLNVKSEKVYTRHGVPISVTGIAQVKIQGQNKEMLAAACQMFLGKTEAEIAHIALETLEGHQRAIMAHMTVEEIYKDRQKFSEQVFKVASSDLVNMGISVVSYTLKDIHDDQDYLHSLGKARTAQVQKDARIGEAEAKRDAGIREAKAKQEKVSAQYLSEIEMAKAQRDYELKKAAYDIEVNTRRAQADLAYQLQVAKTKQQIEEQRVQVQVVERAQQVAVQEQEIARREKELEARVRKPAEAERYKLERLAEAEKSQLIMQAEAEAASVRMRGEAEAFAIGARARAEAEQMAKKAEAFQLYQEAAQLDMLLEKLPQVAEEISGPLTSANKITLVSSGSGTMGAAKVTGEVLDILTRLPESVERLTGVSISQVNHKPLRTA

In the case of MPP1 (from UniProt Q00013), the Kd in series [1] was 18.1 nM; in series [2] it was 24.8 nM.
